From US20140087995A1 (published 2014)
Numbered stars: 1 amine (or outer) side, 2 acyl side, 3 side chain; on linkers, the order of the positions; unused ones are H or OH. Bridge positions count the residues as written; N and C are the ends. Side chains are listed from the residue outwards. Ends that are not written are not given here. * marks the point of attachment. C20 diacid = O=C(O)CCCCCCCCCCCCCCCCCCC(=O)*; γGlu = O=C(O)[C@H](CCC(=O)[*:2])N[*:1]; AEEA = NCCOCCOCC(=O)O

T1: human amylin receptor (human, UniProt P30988 25-474; O60896 24-148, limits assumed)
T1 construct: whole, on cells; Used as cell membranes prepared from the Amylin 3(a)/CRE-luc BHK cells (Assay V); also called hAmylin-R; hAmylinR
T1 sequence (looked up) 1: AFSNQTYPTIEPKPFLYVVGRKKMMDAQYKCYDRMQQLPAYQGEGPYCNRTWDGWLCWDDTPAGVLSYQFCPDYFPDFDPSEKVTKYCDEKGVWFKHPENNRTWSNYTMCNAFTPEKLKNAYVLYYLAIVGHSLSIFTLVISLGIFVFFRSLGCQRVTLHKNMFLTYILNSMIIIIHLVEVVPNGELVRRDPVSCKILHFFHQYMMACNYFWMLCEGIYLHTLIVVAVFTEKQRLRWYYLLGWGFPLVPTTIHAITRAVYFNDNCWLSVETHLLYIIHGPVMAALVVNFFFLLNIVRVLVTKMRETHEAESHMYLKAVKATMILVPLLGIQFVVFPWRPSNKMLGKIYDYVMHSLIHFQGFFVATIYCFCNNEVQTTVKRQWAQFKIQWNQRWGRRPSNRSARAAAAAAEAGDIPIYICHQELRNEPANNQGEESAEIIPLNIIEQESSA
T1 sequence (looked up) 2: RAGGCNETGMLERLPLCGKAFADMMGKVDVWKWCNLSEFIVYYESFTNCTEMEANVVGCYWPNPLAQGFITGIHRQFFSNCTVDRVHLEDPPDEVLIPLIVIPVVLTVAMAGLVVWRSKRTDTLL

B1: N^ε1-[2-[2-[2-[[(4S)-4-carboxy-4-(19-carboxynonadecanoylamino)butanoyl]amino]ethoxy]ethoxy]acetyl]-[Arg17,Pro21,Pro27]-h-amylin (peptide)
peptide: K([AEEA-γGlu-C20 diacid])CNTATCATQRLANFLRHSSPNFGAIPSSTNVGSNTY-NH2
modifications: disulfide 2-7; N-terminus assumed
SMILES: CC[C@H](C)[C@H](NC(=O)[C@H](C)NC(=O)CNC(=O)[C@H](Cc1ccccc1)NC(=O)[C@H](CC(N)=O)NC(=O)[C@@H]1CCCN1C(=O)[C@H](CO)NC(=O)[C@H](CO)NC(=O)[C@H](Cc1c[nH]cn1)NC(=O)[C@H](CCCNC(=N)N)NC(=O)[C@H](CC(C)C)NC(=O)[C@H](Cc1ccccc1)NC(=O)[C@H](CC(N)=O)NC(=O)[C@H](C)NC(=O)[C@H](CC(C)C)NC(=O)[C@H](CCCNC(=N)N)NC(=O)[C@H](CCC(N)=O)NC(=O)[C@@H](NC(=O)[C@H](C)NC(=O)[C@@H]1CSSC[C@H](NC(=O)[C@@H](N)CCCCNC(=O)COCCOCCNC(=O)CC[C@H](NC(=O)CCCCCCCCCCCCCCCCCCC(=O)O)C(=O)O)C(=O)N[C@@H](CC(N)=O)C(=O)N[C@@H]([C@@H](C)O)C(=O)N[C@@H](C)C(=O)N[C@@H]([C@@H](C)O)C(=O)N1)[C@@H](C)O)C(=O)N1CCC[C@H]1C(=O)N[C@@H](CO)C(=O)N[C@@H](CO)C(=O)N[C@H](C(=O)N[C@@H](CC(N)=O)C(=O)N[C@H](C(=O)NCC(=O)N[C@@H](CO)C(=O)N[C@@H](CC(N)=O)C(=O)N[C@H](C(=O)N[C@@H](Cc1ccc(O)cc1)C(N)=O)[C@@H](C)O)C(C)C)[C@@H](C)O
notes: also called compound 41
B2: N^-1-[(4S)-4-carboxy-4-(19-carboxynonadecanoylamino)butanoyl]-Gly[Arg1,Arg17,Pro21,Pro27]-h-amylin (peptide)
peptide: {C20 diacid-γGlu}-GRCNTATCATQRLANFLRHSSPNFGAIPSSTNVGSNTY-NH2
modifications: disulfide 3-8
SMILES: CC[C@H](C)[C@H](NC(=O)[C@H](C)NC(=O)CNC(=O)[C@H](Cc1ccccc1)NC(=O)[C@H](CC(N)=O)NC(=O)[C@@H]1CCCN1C(=O)[C@H](CO)NC(=O)[C@H](CO)NC(=O)[C@H](Cc1c[nH]cn1)NC(=O)[C@H](CCCNC(=N)N)NC(=O)[C@H](CC(C)C)NC(=O)[C@H](Cc1ccccc1)NC(=O)[C@H](CC(N)=O)NC(=O)[C@H](C)NC(=O)[C@H](CC(C)C)NC(=O)[C@H](CCCNC(=N)N)NC(=O)[C@H](CCC(N)=O)NC(=O)[C@@H](NC(=O)[C@H](C)NC(=O)[C@@H]1CSSC[C@H](NC(=O)[C@H](CCCNC(=N)N)NC(=O)CNC(=O)CC[C@H](NC(=O)CCCCCCCCCCCCCCCCCCC(=O)O)C(=O)O)C(=O)N[C@@H](CC(N)=O)C(=O)N[C@@H]([C@@H](C)O)C(=O)N[C@@H](C)C(=O)N[C@@H]([C@@H](C)O)C(=O)N1)[C@@H](C)O)C(=O)N1CCC[C@H]1C(=O)N[C@@H](CO)C(=O)N[C@@H](CO)C(=O)N[C@H](C(=O)N[C@@H](CC(N)=O)C(=O)N[C@H](C(=O)NCC(=O)N[C@@H](CO)C(=O)N[C@@H](CC(N)=O)C(=O)N[C@H](C(=O)N[C@@H](Cc1ccc(O)cc1)C(N)=O)[C@@H](C)O)C(C)C)[C@@H](C)O
notes: also called compound 46
B3: N^-1-[(4S)-4-carboxy-4-(19-carboxynonadecanoylamino)butanoyl]-Gly[Arg1,Ala14,Arg17,Pro21,Pro27,His34]-h-amylin (peptide)
peptide: {C20 diacid-γGlu}-GRCNTATCATQRLAAFLRHSSPNFGAIPSSTNVGHNTY-NH2
modifications: disulfide 3-8
SMILES: CC[C@H](C)[C@H](NC(=O)[C@H](C)NC(=O)CNC(=O)[C@H](Cc1ccccc1)NC(=O)[C@H](CC(N)=O)NC(=O)[C@@H]1CCCN1C(=O)[C@H](CO)NC(=O)[C@H](CO)NC(=O)[C@H](Cc1c[nH]cn1)NC(=O)[C@H](CCCNC(=N)N)NC(=O)[C@H](CC(C)C)NC(=O)[C@H](Cc1ccccc1)NC(=O)[C@H](C)NC(=O)[C@H](C)NC(=O)[C@H](CC(C)C)NC(=O)[C@H](CCCNC(=N)N)NC(=O)[C@H](CCC(N)=O)NC(=O)[C@@H](NC(=O)[C@H](C)NC(=O)[C@@H]1CSSC[C@H](NC(=O)[C@H](CCCNC(=N)N)NC(=O)CNC(=O)CC[C@H](NC(=O)CCCCCCCCCCCCCCCCCCC(=O)O)C(=O)O)C(=O)N[C@@H](CC(N)=O)C(=O)N[C@@H]([C@@H](C)O)C(=O)N[C@@H](C)C(=O)N[C@@H]([C@@H](C)O)C(=O)N1)[C@@H](C)O)C(=O)N1CCC[C@H]1C(=O)N[C@@H](CO)C(=O)N[C@@H](CO)C(=O)N[C@H](C(=O)N[C@@H](CC(N)=O)C(=O)N[C@H](C(=O)NCC(=O)N[C@@H](Cc1c[nH]cn1)C(=O)N[C@@H](CC(N)=O)C(=O)N[C@H](C(=O)N[C@@H](Cc1ccc(O)cc1)C(N)=O)[C@@H](C)O)C(C)C)[C@@H](C)O
B4: N^ε-[2-[2-[2-[[(4S)-4-carboxy-4-(19-carboxynonadecanoylamino)butanoyl]amino]ethoxy]ethoxy]acetyl]Lys[Arg1,Arg17,Pro21,Pro27,His35]-h-amylin (peptide)
peptide: K([AEEA-γGlu-C20 diacid])RCNTATCATQRLANFLRHSSPNFGAIPSSTNVGSHTY-NH2
modifications: disulfide 3-8; N-terminus assumed
SMILES: CC[C@H](C)[C@H](NC(=O)[C@H](C)NC(=O)CNC(=O)[C@H](Cc1ccccc1)NC(=O)[C@H](CC(N)=O)NC(=O)[C@@H]1CCCN1C(=O)[C@H](CO)NC(=O)[C@H](CO)NC(=O)[C@H](Cc1c[nH]cn1)NC(=O)[C@H](CCCNC(=N)N)NC(=O)[C@H](CC(C)C)NC(=O)[C@H](Cc1ccccc1)NC(=O)[C@H](CC(N)=O)NC(=O)[C@H](C)NC(=O)[C@H](CC(C)C)NC(=O)[C@H](CCCNC(=N)N)NC(=O)[C@H](CCC(N)=O)NC(=O)[C@@H](NC(=O)[C@H](C)NC(=O)[C@@H]1CSSC[C@H](NC(=O)[C@H](CCCNC(=N)N)NC(=O)[C@@H](N)CCCCNC(=O)COCCOCCNC(=O)CC[C@H](NC(=O)CCCCCCCCCCCCCCCCCCC(=O)O)C(=O)O)C(=O)N[C@@H](CC(N)=O)C(=O)N[C@@H]([C@@H](C)O)C(=O)N[C@@H](C)C(=O)N[C@@H]([C@@H](C)O)C(=O)N1)[C@@H](C)O)C(=O)N1CCC[C@H]1C(=O)N[C@@H](CO)C(=O)N[C@@H](CO)C(=O)N[C@H](C(=O)N[C@@H](CC(N)=O)C(=O)N[C@H](C(=O)NCC(=O)N[C@@H](CO)C(=O)N[C@@H](Cc1c[nH]cn1)C(=O)N[C@H](C(=O)N[C@@H](Cc1ccc(O)cc1)C(N)=O)[C@@H](C)O)C(C)C)[C@@H](C)O
notes: also called compound 45
B5: N^-1-[(4S)-4-carboxy-4-(19-carboxynonadecanoylamino)butanoyl]-Gly[Arg1,His14,Arg17,Pro21,Pro27,Pro34]-h-amylin (peptide)
peptide: {C20 diacid-γGlu}-GRCNTATCATQRLAHFLRHSSPNFGAIPSSTNVGPNTY-NH2
modifications: disulfide 3-8
SMILES: CC[C@H](C)[C@H](NC(=O)[C@H](C)NC(=O)CNC(=O)[C@H](Cc1ccccc1)NC(=O)[C@H](CC(N)=O)NC(=O)[C@@H]1CCCN1C(=O)[C@H](CO)NC(=O)[C@H](CO)NC(=O)[C@H](Cc1c[nH]cn1)NC(=O)[C@H](CCCNC(=N)N)NC(=O)[C@H](CC(C)C)NC(=O)[C@H](Cc1ccccc1)NC(=O)[C@H](Cc1c[nH]cn1)NC(=O)[C@H](C)NC(=O)[C@H](CC(C)C)NC(=O)[C@H](CCCNC(=N)N)NC(=O)[C@H](CCC(N)=O)NC(=O)[C@@H](NC(=O)[C@H](C)NC(=O)[C@@H]1CSSC[C@H](NC(=O)[C@H](CCCNC(=N)N)NC(=O)CNC(=O)CC[C@H](NC(=O)CCCCCCCCCCCCCCCCCCC(=O)O)C(=O)O)C(=O)N[C@@H](CC(N)=O)C(=O)N[C@@H]([C@@H](C)O)C(=O)N[C@@H](C)C(=O)N[C@@H]([C@@H](C)O)C(=O)N1)[C@@H](C)O)C(=O)N1CCC[C@H]1C(=O)N[C@@H](CO)C(=O)N[C@@H](CO)C(=O)N[C@H](C(=O)N[C@@H](CC(N)=O)C(=O)N[C@H](C(=O)NCC(=O)N1CCC[C@H]1C(=O)N[C@@H](CC(N)=O)C(=O)N[C@H](C(=O)N[C@@H](Cc1ccc(O)cc1)C(N)=O)[C@@H](C)O)C(C)C)[C@@H](C)O
B6: N^ε1-[2-[2-[2-(19-carboxynonadecanoylamino)ethoxy]ethoxy]acetyl]-[Arg17,Pro21,Pro27]-h-amylin (peptide)
peptide: K([AEEA-C20 diacid])CNTATCATQRLANFLRHSSPNFGAIPSSTNVGSNTY-NH2
modifications: disulfide 2-7; N-terminus assumed
SMILES: CC[C@H](C)[C@H](NC(=O)[C@H](C)NC(=O)CNC(=O)[C@H](Cc1ccccc1)NC(=O)[C@H](CC(N)=O)NC(=O)[C@@H]1CCCN1C(=O)[C@H](CO)NC(=O)[C@H](CO)NC(=O)[C@H](Cc1c[nH]cn1)NC(=O)[C@H](CCCNC(=N)N)NC(=O)[C@H](CC(C)C)NC(=O)[C@H](Cc1ccccc1)NC(=O)[C@H](CC(N)=O)NC(=O)[C@H](C)NC(=O)[C@H](CC(C)C)NC(=O)[C@H](CCCNC(=N)N)NC(=O)[C@H](CCC(N)=O)NC(=O)[C@@H](NC(=O)[C@H](C)NC(=O)[C@@H]1CSSC[C@H](NC(=O)[C@@H](N)CCCCNC(=O)COCCOCCNC(=O)CCCCCCCCCCCCCCCCCCC(=O)O)C(=O)N[C@@H](CC(N)=O)C(=O)N[C@@H]([C@@H](C)O)C(=O)N[C@@H](C)C(=O)N[C@@H]([C@@H](C)O)C(=O)N1)[C@@H](C)O)C(=O)N1CCC[C@H]1C(=O)N[C@@H](CO)C(=O)N[C@@H](CO)C(=O)N[C@H](C(=O)N[C@@H](CC(N)=O)C(=O)N[C@H](C(=O)NCC(=O)N[C@@H](CO)C(=O)N[C@@H](CC(N)=O)C(=O)N[C@H](C(=O)N[C@@H](Cc1ccc(O)cc1)C(N)=O)[C@@H](C)O)C(C)C)[C@@H](C)O
notes: also called compound 43

Molecular target: T1, human amylin receptor
Assay: SPA competition vs 125I-rat amylin, membranes of amylin 3(a) receptor BHK cells (Assay V)
Summary of the method: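 One-site competition analysis of SPA counts yielded IC₅₀ as a measure of affinity. Membranes were at 35 ng/μL final; incubation was 120 min at 25° C, pH 7.4.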

First: B1
Second: B2
The IC50 of the first is 2.2-fold higher: 0.427 nM for the first, 0.195 nM for the second.

Compared with {C20 diacid-γGlu}-GRCNTATCATQRLAAFLRHSSPNFGAIPSSTNVGPNTY-NH2 (disulfide 3-8), B3 is 3.7-fold higher in IC50: 0.114 nM for the first, 0.426 nM for the second.

Compared with B4, B5 is 2.5-fold lower in IC50: 0.552 nM for the first, 0.217 nM for the second.

B6 gave an IC50 of 0.076 nM.
